According to patent US20230057012A1, “TGFB INHIBITORS AND USE THEREOF” (Scholar Rock, Inc., priority 2020, published 2023):

Columns and labels:
Human = conditions: in vivo; cited from earlier work
non-diseased rat BAL = experiment: TGFβ downstream tonic signaling in rat BAL; assay type: in vivo
Description: Indeed, data presented herein support this notion. […] Preferably, TGFβ antagonists for use in the treatment of such conditions exert their inhibitory activities only towards the disease-induced or disease-associated isoform, while preserving the function of the other isoforms that are normally expressed to mediate tonic signaling in the tissue. […] Alternatively or additionally, agents that target and block integrin-dependent activation of TGFβ may be capable of blocking only a subset of integrins responsible for disease-associated TGFβ1 activation, among numerous integrin types that are expressed by various cell types and play a role in the pathogenesis. Furthermore, even where such antagonists may selectively block integrin-mediated activation of the TGFβ1 isoform, it may be ineffective in blocking TGFβ1 activation triggered by other modes, such as protease-dependent activation. By contrast, the isoform-specific, inhibitors of TGFβ1 such as those described herein are aimed to prevent the activation step of TGFβ1 regardless of the particular mode of activation, while maintaining isoform selectivity. Preferably, the isoform-selective activation inhibitor of TGFβ1 is Ab46 or an engineered molecule comprising an antigen-binding fragment thereof.

[1] = tested on: Female Fischer344 rats or Sprague Dawley (SD) rats; conditions: rat, in vivo
Method: Animals receiving LY2109761 were dosed by oral gavage once daily for five or seven days. Animals were sacrificed and necropsies performed.

Molecule	Half-life (Human)	previously reported adverse events in human patients (Human)	TGFβ downstream tonic signaling (non-diseased rat BAL)	bone findings [1]
GC1008: human analog of 1D11, pan-TGFβ antibody	Half-life: 21.7 d	leukocytosis (grade 3), fatigue (grade 3), hypoxia (grade 3), asystole (grade 5), leukopenia (grade 1), recurrent, transient, tender erythematous, nodular skin lesions, suppurative dermatitis, and herpes zoster		
c1ccc(-c2nn3c(c2-c2ccnc4cc(OCCN5CCOCC5)ccc24)CCC3)nc1 [LY2109761]			inhibit TGFβ downstream tonic signaling	macroscopic abnormally shaped sternum and microscopic increased thickness of the hypertrophic zone in the endplate of the sternum and physis of the femur and tibia
